Measurements reported in patent US8722043B2, “Induction of p53 expression by neutralization of neuropilin-2 for the treatment of cancers” (Diaclone, priority 2008, dated 2014).

What was measured:
AKT protein = assay: Western blotting of AKT and its phosphorylation; format: cell-based, human; conditions: 20 μg/ml, 24 hours; HT29-NRP-2 and Colo320^siRNA-ctrl cells; treated versus not treated
Procedure: (§1) The possible effect of the ITAC-B1 antibody on the degree of phosphorylation of a VEGF receptor (VEGFR1), and also on the phosphorylation of the AKT protein which is activated by means of the VEGF receptors, was studied on HT29-NRP-2 and Colo320^siRNA-ctrl tumour cells.
(§2) The cells were cultured for 24 hours in RPMI medium+10% FCS in the presence of the BZ1 control antibody at 20 μg/ml, of ITAC-B1 at 20 μg/ml or of 5-FU at 50 μg/ml. A “nontreated cell” control was added (“medium” control). The cells were then isolated and lysed, and the phosphorylation of VEGFR-1 and of AKT was evaluated by Western blotting on the cell protein extracts, using antibodies directed against nonphosphorylated VEGFR1 (anti-VEGFR1 rabbit polyclonal antibody) or phosphorylated VEGFR1 (anti-phospho-VEGFR1^Tyr1213 rabbit polyclonal antibody, R&D systems) or antibodies directed against nonphosphorylated AKT (rabbit polyclonal antibody C67E7, Cell Signaling technology) or phosphorylated AKT (anti-phospho-AKT^Ser473 rabbit polyclonal antibody DE-9, Cell Signaling technology). The results are represented in FIGS. 16 and 17.

[1] = target: T1, neuropilin-2 on HT29-NRP-2 tumour cells (Homo sapiens, UniProt O60462); assay: Competition between VEGFa and ITAC-B1 for recognition of neuropilin-2 (flow cytometry); format: binding; conditions: preincubation with VEGF 1000 ng/ml for 15 minutes
T1 construct: expressed in transfected cells; host or cells: HT29 (human colorectal cancer) and P815 (murine mastocytoma) cells, G418-selected
Procedure: These cells were then incubated with the ITAC-B1 antibody or with a control isotype antibody (BZ1 antibody), and analysed by flow cytometry as described in Example 2 above.

VEGFR1 = assay: Western blotting of VEGFR1 phosphorylation; format: cell-based, human; conditions: 20 μg/ml, 24 hours; HT29-NRP-2 and Colo320^siRNA-ctrl cells; treated versus not treated
Procedure: as §1, §2

p53 protein = assay: Western blotting of p53 expression after antibody treatment; format: cell-based, human; conditions: 20 ng/ml, 48 hours
Procedure: The HT29, HT29-NRP-2, Colo320^siRNA-ctrl tumour cells and Colo320^siRNA-NRP-2 were exposed to 20 ng/ml of ITAC-B1 antibody or of control antibody, and cultured for 48 hours. After lysis of the cell lines, migration of the protein pellets obtained on a 10% polyacrylamide gel (10 μg of protein per well) and then transfer onto a PVDF membrane, the membrane was incubated overnight with the anti-p53 primary antibody (BD Biosciences, mouse anti-human p53) diluted to 1/500. After washing in TBS/0.1% Tween20, the membranes were incubated for 1 hour with an anti-mouse IgG-HRP secondary antibody diluted to 1/6000. The results are represented in FIG. 19.

[2] = system: Colo320^siRNA-ctrl cells (express NRP-2); assay: MTT assay for tumour cell proliferation; format: cell-based, human; conditions: 5 μg/ml antibody; 24, 48 or 72 hours
Description: (§3) The MTT proliferation assay is based on the reduction of 3-(4,5-dimethylthiazol-2-yl)-2,5-diphenyltetrazolium bromide), by the mitochondrial succinate dehydrogenase of active live cells, to give formazan. The coloration intensity (OD) induced by this reaction is proportional to the number of live cells present during the assay, and to the metabolic activity thereof.
(§4) 4000 cells per well of Colo320^siRNA-ctrl cells (control cells transfected with an empty vector) or of Colo320^siRNA-NRP-2 cells (transfected with an siRNA targeting NRP-2), in 100 μl of DMEM medium containing 10% of inactivated FCS, were seeded into a 96-well Maxisorp plate. After adhesion of the cells, 5 μg/ml of ITAC-B anti-NRP-2 antibody or 5 μg/ml of control antibody were added. After culture for 24, 48 or 72 hours, 10 p. 1 of MTT reconstituted at 5 mg/ml in PBS were added to each culture well. The plates were then incubated for 3 hours in the dark, at 37° C. and 5% CO2, and centrifuged, and then the supernatant was removed. 200 p. 1 of DMSO were then added to each well. The optical density was read within an hour, at 570 nm, after shaking with the plate. The assay was carried out in triplicate.
(§5) Panels A and B of FIG. 11 represent, respectively, the results obtained in the proliferation assay carried out with the Colo320^siRNA-ctrl or Colo320^siRNA-NRP-2 cells. […]

[3] = system: Colo320^siRNA-NRP-2 cells (not expressing NRP-2); assay: MTT assay for tumour cell proliferation; format: cell-based, human; conditions: 5 μg/ml antibody; 24, 48 or 72 hours
Description: as §3, §4, §5

[4] = system: Colo320 human tumour cells; assay: Tumour colony formation in semi-solid agar medium; format: cell-based
Procedure: In order to determine whether the ITAC-B1 antibody has a neutralizing activity on the formation of tumour colonies in vitro, tests for tumour colony formation in vitro in a semi-solid agar medium containing agar were carried out. The principle of this test is based on bringing Colo320 human tumour cells (which express NRP-2 at their membrane surface and, furthermore, naturally secrete VEGF into the culture medium) into contact with the ITAC-B1 antibody. 4000 Colo320 cells are seeded into each well of a 24-well plate, in a semi-solid medium containing agar, and in the presence of 10 μg/ml of anti-NRP-2 antibody ITAC-B1. By way of comparison, the same test is carried out in the presence of cytotoxic agents with a proven action, i.e. 5-fluorouracil (5-FU), used at a rate of 50 μg/ml, or of Avastin® (bevacizumab: humanized monoclonal antibodies directed against VEGF), used at a rate of 50 μg/ml, or in the presence of a control isotype antibody (mouse IgG1 monoclonal antibody (BZ1)), used at a rate of 10 μg/ml.
At 10 days post-seeding, the colonies were counted under an optical microscope.
Since neuropilin-2 is a coreceptor for VEGF, it was verified whether the activity of ITAC-B1 was dependent on an interaction between NRP-2 and the VEGF produced by the Colo320 cells. With this aim, the tests for Colo320-cell colony formation were carried out under the conditions described above, and in the presence of ITAC-B1 antibody (10 μg/ml), of bevacizumab (50 μg/ml) or of control antibody (10 μg/ml), used separately or in combination.
The results are given in FIG. 10: the y-axis represents the number of colonies formed; on the x-axis, the antibodies present in the culture medium are indicated by a “+”.

T1 sequence (O60462 21-931): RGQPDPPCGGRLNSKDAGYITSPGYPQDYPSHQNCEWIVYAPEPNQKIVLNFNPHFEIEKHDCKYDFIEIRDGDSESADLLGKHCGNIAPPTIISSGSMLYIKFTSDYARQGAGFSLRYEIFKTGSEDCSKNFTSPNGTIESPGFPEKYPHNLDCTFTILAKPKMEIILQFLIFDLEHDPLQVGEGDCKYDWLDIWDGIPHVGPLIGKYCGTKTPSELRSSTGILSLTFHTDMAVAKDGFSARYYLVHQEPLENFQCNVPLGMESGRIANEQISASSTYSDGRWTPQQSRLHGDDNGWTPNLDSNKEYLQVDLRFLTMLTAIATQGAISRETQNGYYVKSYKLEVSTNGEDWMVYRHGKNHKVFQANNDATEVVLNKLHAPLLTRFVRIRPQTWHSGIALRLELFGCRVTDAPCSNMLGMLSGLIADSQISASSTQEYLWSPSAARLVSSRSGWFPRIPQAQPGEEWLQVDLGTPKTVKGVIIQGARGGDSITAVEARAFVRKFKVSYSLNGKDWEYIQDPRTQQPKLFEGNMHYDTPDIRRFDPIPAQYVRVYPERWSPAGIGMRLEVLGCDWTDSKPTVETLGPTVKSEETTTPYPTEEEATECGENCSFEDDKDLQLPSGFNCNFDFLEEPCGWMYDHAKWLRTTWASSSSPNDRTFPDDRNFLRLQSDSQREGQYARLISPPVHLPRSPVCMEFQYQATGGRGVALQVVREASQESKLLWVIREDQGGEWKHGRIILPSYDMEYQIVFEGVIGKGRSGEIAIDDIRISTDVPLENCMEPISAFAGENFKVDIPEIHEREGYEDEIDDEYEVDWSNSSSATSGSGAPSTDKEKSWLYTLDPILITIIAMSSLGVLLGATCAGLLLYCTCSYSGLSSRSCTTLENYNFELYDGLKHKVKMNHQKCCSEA

B1: ITAC-B1: anti-human neuropilin-2 murine monoclonal antibody, VH SEQ ID No. 2, VL SEQ ID No. 4, produced by hybridoma CNCM 1-4054 (antibody, listed as Mus musculus, V domains shown)
VH: EVKLQESGAELVKPGASVKLSCTVSGFNIKDTYIHWVIQRPEQGLEWLGRIDPANGNTKYDPKFQGKATITADTSSNTAYLQLSSLTSEDTAVYYCARWAVVGDYWGQGTTLTVSS
VL: YCDHPLYKFLHVSAGDRVTITCKASQSVSDDVAWYQQKPGQSPKLLIYSASNRYTGVPDRFTGSGYGTDFTFTISTVQPEDLAVYFCQQDYSSPTFGSGTKLELK
amount of AKT and its phosphorylation status (AKT protein): similar | binding to the tumour cells in the presence of VEGFa [1]: does not prevent the binding of ITAC-B1 to the tumour cells | phosphorylation status of VEGFR (VEGFR1): similar | expression of p53 in lines which express NRP-2 (p53 protein; HT29-NRP-2 and Colo320^siRNA-ctrl): partly restores the expression of p53 | expression of p53 in lines which do not express NRP-2 (p53 protein; HT29-ctrl and Colo320^siRNA-NRP-2, with or without antibody): strongly expressed | proliferation (OD at 570 nm) [2]: less than that of the cells alone and that observed in the presence of the control antibody | proliferation (OD at 570 nm) [3]: identical to that of the control cells and to that observed in the presence of the control antibody | number of colonies compared with the cells alone control ([4]; ITAC-B1 10 μg/ml alone (FIG. 10)): greatly reduced | number of colonies ([4]; ITAC-B1 10 μg/ml combined with bevacizumab 50 μg/ml (FIG. 10)): identical to that observed when the medium contains the ITAC-B1 antibody alone
